Assays:
[1] = biological target: T1, ACVR1 (as used for surface plasmon resonance) (Homo sapiens (assumed), UniProt Q04771); test: SPR; BIAcore; which partner was immobilised, and the conditions, are not told in the text shown; conditions: both partners purified
T1 construct: ACVR1 (ALK2), BMP type I receptor; For other steps (serum ELISA, panning, BLI) the methods name recombinant human ACVR1 extracellular domain proteins (Creative Biomart ACVR1-01H; Sino Biologicals 10227-H03B; R&D Systems 637-AR), but none is named for the BIAcore measurement; It was probably an extracellular domain construct; also called ALK2; BMP type I receptor ACVR1

[2] = biological target: T2, ACVR1 on parental C2C12 cells (Mus musculus (C2C12, endogenous), UniProt P37172); test: flow cytometry on cells; JAB0505 on parental (wild-type ACVR1-expressing) and ACVR1-KO C2C12 cells; conditions: one partner purified
T2 construct: ACVR1 (ALK2), mouse, endogenous on the surface of C2C12 cells; also called ALK2; wild-type ACVR1; source: endogenous, on mouse C2C12 myoblast cells

ALK3 on C2C12 cells = biological target: T3, ALK3 on C2C12 cells (Mus musculus (C2C12, endogenous), UniProt P36895); test: as above; conditions: one partner purified
T3 construct: ALK3 (BMPR1A), mouse, endogenous on the surface of C2C12 cells; also called Bmpr1a; source: endogenous, on mouse C2C12 myoblast cells (ACVR1-KO clone)
T3 sequence (P36895 24-532): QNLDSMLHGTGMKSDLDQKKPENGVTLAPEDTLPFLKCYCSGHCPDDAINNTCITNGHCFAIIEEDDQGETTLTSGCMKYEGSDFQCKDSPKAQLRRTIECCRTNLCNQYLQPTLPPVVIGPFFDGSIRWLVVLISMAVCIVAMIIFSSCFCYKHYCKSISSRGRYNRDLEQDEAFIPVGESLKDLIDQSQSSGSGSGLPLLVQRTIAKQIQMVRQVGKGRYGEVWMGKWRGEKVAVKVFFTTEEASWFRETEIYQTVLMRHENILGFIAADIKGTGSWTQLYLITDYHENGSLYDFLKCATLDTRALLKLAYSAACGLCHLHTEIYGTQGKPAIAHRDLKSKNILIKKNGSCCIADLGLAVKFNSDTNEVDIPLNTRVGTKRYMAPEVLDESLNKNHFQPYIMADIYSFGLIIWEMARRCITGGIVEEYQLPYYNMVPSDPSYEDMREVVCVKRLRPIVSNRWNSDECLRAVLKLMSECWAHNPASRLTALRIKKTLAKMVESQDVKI

T2 sequence (P37172 21-509): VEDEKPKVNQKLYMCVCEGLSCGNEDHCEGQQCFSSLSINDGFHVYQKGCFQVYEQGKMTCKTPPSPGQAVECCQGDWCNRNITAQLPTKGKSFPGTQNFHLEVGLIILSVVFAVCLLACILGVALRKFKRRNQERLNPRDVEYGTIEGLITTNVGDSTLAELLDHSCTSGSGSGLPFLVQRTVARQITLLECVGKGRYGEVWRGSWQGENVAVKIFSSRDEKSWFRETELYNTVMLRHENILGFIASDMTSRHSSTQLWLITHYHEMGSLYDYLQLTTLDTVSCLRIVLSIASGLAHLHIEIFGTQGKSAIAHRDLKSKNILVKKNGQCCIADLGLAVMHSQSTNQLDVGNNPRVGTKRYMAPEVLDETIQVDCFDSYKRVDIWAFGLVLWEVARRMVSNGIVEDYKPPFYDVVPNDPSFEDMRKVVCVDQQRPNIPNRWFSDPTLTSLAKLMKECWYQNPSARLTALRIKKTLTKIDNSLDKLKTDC
T1 sequence (Q04771 21-509): as the sequence (P37172 21-509) above, with V1M, Q10P, I121L, E162D, S310P counted along it

B1: anti-ACVR1 monoclonal antibody JAB0505 (antibody, V domains shown)
VH: EVQLQQSGAELVRPGASVRLSCTASGFNIKDSLMHWVKQRPEQGLEWIGWIDPEDGETRYAPNFQDKATITAVTSSNTAYLQLSSLTSEDSAIYYCARYTSRYYTMDYWGQGTSVTVSS
VL: DIQMTQSPASQSASLGESVTFTCLASQTIGTWLAWYQQKPGKSPQLLIYAATSLADGVPSRFSGSGSGTKFSFKISSLQAEDFASYYCQQLYWTPWTFGGGTKLEIK
notes: also called anti-ACVR1 mAb; mAb JAB0505; source: HEK293 cells, purified by protein A chromatography; copies: 2 + 2
Kd [1]: ~25 nM | binding result [2]: binds | binding result (ALK3 on C2C12 cells): no binding
